Consider two molecules from article PMC8357825, “Structural basis for Ca^2+ activation of the heteromeric PKD1L3/PKD2L1 channel” (Nature Communications, 2021).

B1: mouse PKD1L3-CTD (residues 1632–2151) (domain or fragment, UniProt Q2EG98 1632-2151, looked up)
chain: PIYTAPAMNNLAKPTRKAWKKQLSKLTGGTLVQILFLTLLMTTVYSAKDSSRFFLHRAIWKRFSHRFSEIKTVEDFYPWANGTLLPNLYGDYRGFITDGNSFLLGNVLIRQTRIPNDIFFPGSLHKQMKSPPQHQEDRENYGAGWVPPDTNITKVDSIWHYQNQESLGGYPIQGELATYSGGGYVVRLGRNHSAATRVLQHLEQRRWLDHCTKALFVEFTVFNANVNLLCAVTLILESSGVGTFLTSLQLDSLTSLQSSERGFAWIVSQVVYYLLVCYYAFIQGCRLKRQRLAFFTRKRNLLDTSIVLISFSILGLSMQSLSLLHKKMQQYHCDRDRFISFYEALRVNSAVTHLRGFLLLFATVRVWDLLRHHAQLQVINKTLSKAWDEVLGFILIIVVLLSSYAMTFNLLFGWSISDYQSFFRSIVTVVGLLMGTSKHKEVIALYPILGSLLVLSSIILMGLVIINLFVSAILIAFGKERKACEKEATLTDMLLQKLSSLLGIRLHQNPSEEHADNTGY
notes: PKD1L3, mouse, Uniprot Q2EG98, carboxy-terminal domain (TM6-TM11 = S1-S6; VSD, PMD and PD), residues 1632-2151; it is not clear whether each chain has both tags or one tag each; No tag removal is described; also called mPKD1L3 (residues 1632–2151); TRP-like domain; source: HEK293F, transiently co-transfected with mPKD2L1, purified (anti-Flag M2 resin, Strep-Tactin resin, SEC in GDN)
B2: mouse PKD2L1 (residues 64–629) (domain or fragment, UniProt A2A259 64-629, looked up)
chain: TLVSSCCLHICRSIRGLWGTTLTENTAENRELYVKTTLRELVVYIVFLVDICLLTYGMTSSSAYYYTKVMSELFLHTPSDSGVSFQTISSMSDFWDFAQGPLLDSLYWTKWYNNQSLGRGSHSFIYYENLLLGAPRLRQLRVRNDSCVVHEDFREDILNCYDVYSPDKEDQLPFGPQNGTAWTYHSQNELGGSSHWGRLTSYSGGGYYLDLPGSRQASAEALQGLQEGLWLDRGTRVVFIDFSVYNANINLFCILRLVVEFPATGGTIPSWQIRTVKLIRYVNNWDFFIVGCEVVFCVFIFYYVVEEILEIHLHRLRYLSSVWNILDLVVILLSIVAVGFHIFRTLEVNRLMGKLLQQPDTYADFEFLAFWQTQYNNMNAVNLFFAWIKIFKYISFNKTMTQLSSTLARCAKDILGFAIMFFIVFFAYAQLGYLLFGTQVENFSTFVKCIFTQFRIILGDFDYNAIDNANRILGPVYFVTYVFFVFFVLLNMFLAIINDTYSEVKEELAGQKDQLQLSDFLKQSYNKTLLRLRLRKERVSDVQKVLKGGEPEIQFEDFTSTLRELG
notes: PKD2L1, mouse, Uniprot A2A259, residues 64-629 (lacks the C-terminal coiled-coil domain); Three copies of this chain (I, II, III) stand with one PKD1L3-CTD in the heterotetramer; It is not clear whether each chain has both tags or one tag each; also called mPKD2L1 (residues 64–629); TRPP2; source: HEK293F, transiently co-transfected with mPKD1L3, purified (anti-Flag M2 resin, Strep-Tactin resin, …)

What all share (test): cryo-EM structure; co-expressed and co-purified PKD1L3-CTD/PKD2L1 complex in 20 mM HEPES pH 7.5, 150 mM NaCl, 0.01% GDN, 0.2% Fos-Choline-8 added; without (apo, 3.4 Å) and with 20 mM CaCl2 (Ca2+-loaded, 3.1 Å)
Data set [1] concerns the target B2. Particulars: both partners purified.
Data set [2] concerns the target B1. The following applies: both partners purified.
Data set [3] concerns the molecule itself.

In the case of B1, the binding result in data set [1] is given as “binds”.
As usually defined, the stoichiometry N is a count of units in the complex or per binding partner. B2: in data set [2], the “stoichiometry N” value was determined as 3 PKD2L1 per PKD1L3. The binding result in data set [3] was “binds”.
